Results as given in the DeepSol protein solubility set.

Experiment: soluble on expression in E. coli; label from the status in PepcDB or PDB records

Soluble on expression in E. coli, not soluble:
MGSDKIHHHHHHMRLVVDGFGKYLGIENGLIVVKEKGKALRKVRPEDLKQVLIIGKAAISSDAIKLLLKNRVDVVFLDFNGEILGRLSHPLIGTAKTRREQYLAYGDKRGVHLAKEFIKAKMANQMAILTNLAKARKDSNPEVAESLLKAKKEIDACLNELDGVEAEMIDKVRERLLGIEGKASKHYWDAISLVIPEEYRFNGRRGIEIGSPRYAKDIVNAMLNYGYSILLAECVKAVELAGLDPYAGFLHVDVSGRSSLAIDLMENFRQQVVDRVVLRLISYRQIKPEDCEKRNMVCQLSDNARRLLLASLLERLDSKTQYRGRNLAYSSIILLHARDVVAFLRGERRYEGFVQKW
MGSDKIHHHHHHMRMTTDKKQGKSRELDLFITDLNGNLRGKRLPASGLKKLRKEGLKLPLSVVGFDFWGADVLDNGLVFETGDSDGVCMPVSQEPIPVPWSEAPRDQMLAMMFNPDGTPFGADPRQVLNRMVDRFSAKGLTPVLATELEFYLMDAESESVQRPIPPALADGKGRRLANAEGYSVEEMDGFEAFFADIREACQGQGIGADTIIAEMGPGQFEVNLNHVADPLNAGDQAILFKRLVRGVSRRHGYAATFMAKPYVEESGNGFHTHFSLLDRDGNNVFDDGTEQGSDLLRHAIAGMMQLMPESMLVFAPHLNSYRRFMPGAHAPTHASWGYENRTVALRVPESPNLARRIEHRVAGADANPYLVLASILAGALHGMENALEPDAPVEGDAYAEESPRYPLPCEWQDAIARFEQSEILREYLGEEFVRVYAQAKRQERRRLNERISDVEYEAYLGLL
MGSDKIHHHHHHMRPVEHAVIPCAGVGSRLNRGVPKSLTEIDGRTLLGRTLLALEHIPHVFLVVGFRKELVISEALRHRRNLIFVPNEYFDQTNTLYSVKLASRLIRDDFLMVDGDVVFDPSSFASLLGQLQTCDGPAIAYSRRTTEDGVKVRLDMSRGETTCTGFFRGEGAHEWTGIGRLNNRVISGNSLFVYESIERHMPAPAYLVDSMDIDTPADLEIARATYGRHDH
MGSDKIHHHHHHMRSADSSPAYSPIGSLSSSHSFDSIPDQRMNKSLLSLACLILCGMPAIAQQTGPAERSGEPSLAERVFGLEQKQKKLKVYLGIQSFYDQPLVDDESHIGHFKVQELRMSAHGELNRHLSFDWRQRLNRAADGTSFADNLSNAIDIAGVDWHPNDKVSFFFGRQYARFGGIEYDMNPVEIYQYSDLVDYMTCYTSGVNFAWNFHPEQQLQLQVLNAYNNRFADRYHVTPDVATATSYPLLYSAQWNGTLLGGALHMRYAVSMAHQAQERNMWYFTAGNLFNPGKRINGYLDLTYSIEGLDDKGIMTARYGKGKTLTDVKYYALVSKWNFRIFDQVNLFLKGMYENGYAPAQYGESSHTRHSYGYMGGVEYYPTETNFRLFVTYIGRHYRYSATETESTNALRAGLIYQIPFL
MGSDKIHHHHHHMRSSSKCSSVRFQFFVVELFMTTTQSAGEITGNVLFYNAPEPLNREQHAKLALVHKDKPYAFAAAGTAVPLTVSEFAPAALTFPVIFAGDDRVPLAVMGLNQQENLFIGADGSIEANVYIPAYIRRYPFVLANDDTQDRLIVCIDRGSDLLSEQGQTPLFDAKGEPTEYTQNCIKFCDDFEVERRRTDSFVQILKDNDLFELKKATFQPTDEVGAPVGEPVTVAEYFGVSEEKLNGLSAEKLKELQENGALAQIYAHLVSLLGWDRLINKTMMKQAEAANLN
MGSDKIHHHHHHMRTDNKLSGIIAKKHSFSVPLDYQQSPSEQINLFVRELSSVEHQNKELPYLVFFQGGPGFGAVRPVANTGWIKRALTQYRVLLLDQRGTGLSTPVSAESLAHLTSQQQAEYLSHFRSDNIIRDAELIRAKLSPDRPWSILGQSFGGFCVLRYLSAAPQGLKAAYITGGIPSLERSADEVYQATYQRVLAKNQDFFSRFSDARELANRLASHISEYEVLLSSGERLTVEMLQLLGINLGMEQGPEGVYYLLEQALIDTAQGVKVNPLFLHQFGQFLDYNTNPLFAVLHESIYCQNSASNWAAHRVREQYSQFNYHLGKDLLFTGEMVYPWMFDQFSQLQPLKEAAELLAAKSDWPALYDLEQLKANTVPVSAAIYSEDMFVEMQYSLETTKDVGSLKYWLTSEYEHNGIRMDGERVLDKLIALNTGRELR
MGSDKIHHHHHHMRTLKELERELQPRQHLWYFEYYTGNNVGLFMKMNRVIYSGQSDIQRIDIFENPDLGVVFALDGITMTTEKDEFMYHEMLAHVPMFLHPNPKKVLIIGGGDGGTLREVLKHDSVEKAILCEVDGLVIEAARKYLKQTSCGFDDPRAEIVIANGAEYVRKFKNEFDVIIIDSTDPTAGQGGHLFTEEFYQACYDALKEDGVFSAETEDPFYDIGWFKLAYRRISKVFPITRVYLGFMTTYPSGMWSYTFASKGIDPIKDFDPEKVRKFNKELKYYNEEVHVASFALPNFVKKELGLM
MGSDKIHHHHHHMRTVYAIVVNYNNFDDTAECIDSLLNQTYPCRVVVVDNGSEREVIEKLRRKYPQVEMLELGENRGYAGGCNAGIRAVIDKADYVLISNNDVVFERDAVERMVSEMEEDETIAACQPVVKYYGDERIWSAGTRIFLGYPVLHLKNKMVEVEISFDSPFGLVGCAMLIRSSALKDVGFFDEELFMMHEETEWCIRARKKGYRLAVCKAVVRHKVSASLGLFSPHYLYYTARNWLIVARRAGKAMFFYALITEPLRVLYYLVRLKRKGDIIQYLKGVVHGILSRKGRRC
MGSDKIHHHHHHMRTVYIIGSKGIPAKYGGFETFVEKLTEYQKDKSINYFVACTRENSAKSGITGEVFEHNGATCFNIDVPNIGSAKAILYDIMALKKSIEIAKDRNDTSPIFYILACRIGPFIYLFKKQIESIGGQLFVNPDGHEWLREKWSYPVRQYWKFSESLMLKYADLLICDSKNIEKYIHEDYRKYAPETSYIAYGTDLDKSRLSPTDSVVREWYKEKEISENDYYLVVGRFVPENNYEVMIREFMKSYSRKDFVLITNVEHNSFYEKLKKETGFDKDKRIKFVGTVYNQELLKYIRENAFAYFHGHEVGGTNPSLLEALSSTKLNLLLDVGFNREVGEEGAKYWNKDNLHRVIDSCEQLSQEQINDMDSLSTKQVKERFSWDFIVDEYEKLFKG
MGSDKIHHHHHHMRVIPPIKSIIYFEAAARLQSFKLAAMELNVTPGAISHQISTLEDFIGKKVFERGSRRVTLTYCGLRYYSRISIILQNMEEATVDLGIEGSKPKIKIAIPPSLLKNWLLPRLVDDKLKDLNRSVEFIDTLDYLEFSKCDLDLAIRYGYDSWDNLYSVFLFHEEMIPVCHPNYFISEFTDFTQEIIDNHTLIFTNNRLVQWDIVMQYFGLERKSTQSKLIFQNSIQAIEAAIQGAGIAYVNRILVSKELSNGRLIQPFDIYMPKHKSPAYHLVSTYEHMQDEATFKLYQTILEFAKSTPHQHIVNAQAKQNAWLEHAV
MGSDKIHHHHHHMRVLLLSDIHSSTQNLEKILKAAEYDAVFIAGDLTQFRPKDAKVVDEIISEQTDSCLAVHGNCDHEAILGEKYKALKFIHGKSVEFDGYTVHGVGGSGITPFNTPSEYTEREILEIMDNFVLRDFNILLSHCPPKGFLDRTYSGVHAGCEAIRERMIEFDVILCGHIHESHGVVDSPQLIVNPGPVMWGRFAVIDVEKKVVELRKL
MGSDKIHHHHHHMRWFSLATAFLWGYYGFDNFGDELMFKACVNLLRELGFGTIYTPLPKGKKSMGVTSVDRYSIKLLSLLKKSQVSIAGGGGLFQDVTSLRSLLYYYSISKASLLMDKPLIFFGNSVGPLRRRLSKKLVWDVFKDKRTVFIARDPASYRYVKMVGGNAVLGTDPAIIHLMESDMEKKTEKKAVFFLKSPMDVSYILKSLRDQGINDFVISTAFPGDHSYLPPLRNGENLLEEIVSSSIVITERFHPALVAAYFEIPFIIVDCQKARRFFARYTKEDHFFSKRDPLEISLKVPVVLKKELKLKEKMKNDAIEMKEMLKGVLKGW
MGSDKIHHHHHHMSAFWPFRLTTGCNVNLKFLETFIWVAKLRSFSLAADKLHSTQAAISSRISVLEQELGAKLFTREPKGVALTRAGERVLQHAEQVNESMTRLYASLQDEKFAFGTIRIGAMDSAIHSWFVNFVSDVMHYYPNLDIEVTSETALNLNEQLRRGMLDMVIQTDMLRDETIRSIEVLELSMGWVAAANSPIVSQEAYDTPTAALRGLGRERLITYSRHSRPHQDLLRLMQSYGIGESRVSCVNSVAAMIQLTQAGFGVAAMPPALVPELLNSGVLRQLEGLEAPPPLPFVIAWRSGTNWTERLVEVAVETVSKYAARLGQDAARLVV
MGSDKIHHHHHHMSAIPIIDIPFDKRHTCWFCGEPCNQHFEYHSQTHTPHPSLAVPACSECAKLAKQHPLTSIWDCRMAVKDALMRIYAKHLAIGINWTEAELAESDFSCNIFEGFKKSAWMMYQIARDRINAPGWPLRLEEIEIDDQGYSAGFEFDGVTYTSVHAAIHYYSTQFTLDPTFFADLVRLVGRARFNYALRLARIHIASAKEMKRQVLTDLEAELI
MGSDKIHHHHHHMSAQIIQLHTEAPAASVAQSPRKPTKAEKAIIADYVQDLIRRGFCKITDKSAKETRLFNRFDGEPQTLSYLRENFTEWLDDNGKECEFFCERYFIRRLKHIVGRVFKPNAPEFTQSPITGYRYANTYRRYEPTVDSADLPSCFHAYFERMFPAKHQRHIVLQWLAHIFRRPDQRPSWHLMLLSEPGTGKGFLVQNILQPLLHHTSVVASYSRITGKHSAVLVENLVILLDDCKSRSEATQTEMKSFLSEERALVERKYASAGMEDTYARMILASNEEIPLYVDPNERRWYIPDDVVHLVDLRETQANIIQPLADWLDEPGSLCKVYNWFMQYPLDGFNHKSVPESEGLTRLIDKSKGPYRQYIEDYVKDNKVFTYADLVESMTDAKLSKPSDRELGHVLREIGYEATQRRIDGVRLRLCHPVGMSLQDIRAAYSASPTDPNTPF
MGSDKIHHHHHHMSASLILTLSCEDKPGIVARVTGNLFEAGGNIREAQQFDDPLSGRFFMRVVFDPAEGSVEHYRAAFAAVADHYAMEWNLRDTTVKRKVILMVSKFDHCLGDLLYRTRIGELPMDVVAILGNHPKEALNISLIGDIPYHHLPITKDTKPQQEAEVKRIVTETGAELVVLARYMQILSDDLAAFLSGRCINIHHSFLPSFKGAKPYHQAHARGVKMIGATGHYVTADLDEGPIIHQDVETVTHADSPDDLVRKGRDVERRVLAEAVRLHLEDRALVNGNKTVVFKS
MGSDKIHHHHHHMSAVLYSNLKFLRFKDQLDALAGGTVAPPVHIRIKPTNRCNHKCWYCAYRTDDLKLGEDMDESDLIPEAKMMEIADDIVAMGVKAVTFSGGGEPLLYKPLPEVIDRLAAGGVRVATLTNGANLKGKVAQSLARHATWVRVSVDAWDDDSYVSSRGAKAGEFTKLLENMKAFVETGTKCVLGVSFIAGKDNYHRLSEVCARFKAIGVNHVKLSAAVVGNSVDENNRYHREFAEGARAEIERAKALSGDGFSVLDHFHEMESRFEKDYHRCPFLQFLTVIGADQTVYTCQDKAYTKEGTLGSIRGRSFRDYWFSEENRQRMAEFDPSRLCRHHCVSHSKNQAIMQYLSIDSEHGLFV
MGSDKIHHHHHHMSDIHKKIKKKQFAPLYLLYGTEAFFINETIKLITTEALEEEDREFNVVTYDLEEAYLEDVVEDARTLPFFGERKVLLIKSPLFLTSQKEKLEQNIKILEEYIGEPSPFSILVFVAPYEKLDERKKITKLLKKTADVVEANAMQVQDVQKWIVARADEVHVHIDHAAVSLLLELVGSNVTMLAKEMDKLTLYVGMGGDITPKLVAELVPKSVEQNVFALTEKVVKKDIAGAMQILDGLFTQQEEPIKLLALLVSQFRLLHQVKELQQRGYGQNQIASHIGVHPYRVKLAMNQTKFFSFEELKKVIMELAEADYSMKTGKMDKKLVLEFFLMRLNHM
